For experiment [1], the target named is ^MsmClpP1 R168A, purified (Mycobacterium smegmatis). The experiment is described as follows: AUC; oligomeric state of each purified protein alone, in the absence of z-LL (Fig. S4).
In experiment [2] the target is ^MsmClpP1 Y110A (Mycobacterium smegmatis). The experiment is described as follows: native gel or EMSA; 5 µg of purified protein on 4-16% Native-PAGE Novex Bis-Tris gels, stained with Coomassie Brilliant Blue R250.
Experiment [3] concerns the target ^MsmClpP1, wild type, purified (Mycobacterium smegmatis). The description is as above.
For experiment [4] the target is unchanged. The experiment can be described thus: crystal structure; ^MsmClpP1 crystallised by vapor diffusion at 20 °C from sodium malonate pH 6.6-6.8; one heptamer in the asymmetric unit, tetradecamer from crystallographically related heptamers; 2.0 Å.
Experiment [5] has the same target. The experiment is described as follows: AUC; oligomeric state of each purified protein alone, in the absence of z-LL (Fig. S4).
Experiment [6] has as its target ^MsmClpP2 R189A, purified (Mycobacterium smegmatis). The experiment is described as above.
Experiment [7] deals with ^MsmClpP2, wild type, purified (Mycobacterium smegmatis). Described as above.

Usually stoichiometry N stands for the number of molecules, sites or subunits per partner or assembly.

^MsmClpP1 R168A, purified (enzyme) had a stoichiometry N in experiment [1] of 7.

The substance ^MsmClpP1 Y110A (enzyme) displayed a stoichiometry N in experiment [2] of 14.

Take ^MsmClpP1, wild type, purified (enzyme): the results for the stoichiometry N in experiment [3], in experiment [4] and in experiment [5] were 14, 14 and 7, respectively.

Regarding ^MsmClpP2 R189A, purified (enzyme), in experiment [6], the stoichiometry N was determined as 7.

As to ^MsmClpP2, wild type, purified (enzyme), in experiment [7], the stoichiometry N turned out to be 7.

Values taken from article PMC6889138.
